For 14 substances, microtubule-bound fluorescence intensity and percent of DCLK1 that co-pelleted with microtubules results are on record in paper PMC8352597.

Test [1] has as its target microtubules polymerised from porcine brain tubulin (porcine) (UniProt P02550). Put plainly: TIRF microscopy (sfGFP fluorescence intensity on immobilised microtubules); as a3, but DCLK1 pre-incubated with 2 mM ATP for 30 min at 25°C.
Test [2] shares this target. Put plainly: co-sedimentation; as a5, but DCLK1 pre-incubated with 2 mM ATP at 25°C for 30 min.
Test [3] shares this target. The experiment in a line: co-sedimentation; 500 nM sfGFP-DCLK1 with 2 μM taxol-stabilized microtubules, 25°C 20 min, pelleted at 90,000 xg; 50 mM Tris pH 8, 150 mM K acetate, 2 mM Mg acetate, 1 mM EGTA, 10% glycerol; DCLK1 pre-incubated 30 min without ATP.
The target is the same in test [4]. Put plainly: TIRF microscopy (sfGFP fluorescence intensity on immobilised microtubules); non-stabilized GDP microtubules grown from GMPCPP seeds fixed to the coverslip; 10 nM DCLK1 with 10 uM tubulin and 2 mM GTP in BRB80-based assay buffer; DCLK1 pre-incubated 30 min at 25°C without ATP.
For test [5] the target is unchanged. Put plainly: TIRF microscopy (sfGFP fluorescence intensity on immobilised microtubules); taxol-stabilized microtubules immobilised on the glass surface, sfGFP-DCLK1 flowed in; no ATP; 60 mM HEPES pH 7.4, 50 mM K acetate, 2 mM Mg acetate, 1 mM EGTA, 10% glycerol, biotin-BSA, Pluronic, κ-casein, 10 μM …; KD from a one-site-binding hyperbola fit of intensity against concentration.

For test [6] the target is unchanged. Put plainly: TIRF microscopy (sfGFP fluorescence intensity on immobilised microtubules); as a1, but DCLK1 incubated with 2 mM ATP for 30 min at 25°C before it was flowed onto immobilised taxol-stabilized microtubules; KD from a one-site-binding hyperbola fit.

microtubules polymerised from porcine brain tubulin (porcine), sequence (P02550 whole entry, chain 1 of 2): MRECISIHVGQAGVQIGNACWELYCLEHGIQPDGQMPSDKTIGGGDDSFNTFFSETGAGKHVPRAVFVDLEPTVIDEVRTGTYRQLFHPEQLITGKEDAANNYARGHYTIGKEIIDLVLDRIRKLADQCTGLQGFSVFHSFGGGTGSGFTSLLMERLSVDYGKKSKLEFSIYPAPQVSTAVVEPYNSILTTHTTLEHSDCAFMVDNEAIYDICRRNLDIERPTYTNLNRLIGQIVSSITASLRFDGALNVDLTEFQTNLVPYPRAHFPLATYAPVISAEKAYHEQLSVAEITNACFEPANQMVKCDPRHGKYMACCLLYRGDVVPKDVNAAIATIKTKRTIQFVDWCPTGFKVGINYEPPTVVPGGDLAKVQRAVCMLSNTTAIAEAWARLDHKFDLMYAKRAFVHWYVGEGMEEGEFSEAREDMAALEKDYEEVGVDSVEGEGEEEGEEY
microtubules polymerised from porcine brain tubulin (porcine), sequence (P02554 whole entry, chain 2 of 2, further chain): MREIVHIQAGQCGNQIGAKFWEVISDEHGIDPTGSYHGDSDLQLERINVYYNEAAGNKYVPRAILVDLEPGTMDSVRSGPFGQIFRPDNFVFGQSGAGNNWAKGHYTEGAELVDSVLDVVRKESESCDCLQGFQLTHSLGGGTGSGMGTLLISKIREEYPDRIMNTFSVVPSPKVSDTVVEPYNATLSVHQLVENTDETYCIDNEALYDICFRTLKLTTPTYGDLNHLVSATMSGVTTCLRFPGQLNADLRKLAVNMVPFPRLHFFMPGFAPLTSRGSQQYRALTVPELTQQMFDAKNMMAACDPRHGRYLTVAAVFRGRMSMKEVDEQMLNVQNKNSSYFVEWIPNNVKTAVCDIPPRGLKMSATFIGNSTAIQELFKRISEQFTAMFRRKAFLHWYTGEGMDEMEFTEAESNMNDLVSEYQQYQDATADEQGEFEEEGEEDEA

As to “sfGFP-DCLK1 wild type (mouse, aa 1-740), co-expressed with lambda phosphatase, autophosphorylated by 30 min with 2 mM ATP (natural protein)”, in test [1], the microtubule-bound fluorescence intensity at 10 nM was determined as 12500. This substance also had a percent of DCLK1 that co-pelleted with microtubules in test [2] of 86.2%.

Substance “sfGFP-DCLK1 wild type (mouse, aa 1-740), co-expressed with lambda phosphatase, not incubated with ATP (natural protein)” yielded a percent of DCLK1 that co-pelleted with microtubules in test [3] of 99.3%. The substance also gave a microtubule-bound fluorescence intensity at 10 nM in test [4] of 15000.

For the substance “sfGFP-DCLK1 wild type (mouse, aa 1-740), expressed in bacteria under standard conditions (natural protein)”, in test [5], the microtubule-bound fluorescence intensity at 3 nM was found to be 2750 and the microtubule-bound fluorescence intensity at 25 nM was found to be 16100.

On to “sfGFP-DCLK1 wild type (mouse, aa 1-740), treated with lambda phosphatase after purification (natural protein)”, for which, in test [5], the microtubule-bound fluorescence intensity at 3 nM turned out to be 15100 and the microtubule-bound fluorescence intensity at 25 nM was determined as 18200.

In test [5], “sfGFP-DCLK1-D511N (kinase-dead, mouse, full length) (natural protein)” returned a microtubule-bound fluorescence intensity at 3 nM of 9070 and a microtubule-bound fluorescence intensity at 25 nM of 19700.

In test [2], “sfGFP-DCLK1-T688A (mouse, full length), co-expressed with lambda phosphatase, incubated 30 min with 2 mM ATP (natural protein)” came in with a percent of DCLK1 that co-pelleted with microtubules of 7.9%.

In the case of “sfGFP-DCLK1-T688A (mouse, full length), co-expressed with lambda phosphatase, not incubated with ATP (natural protein)”, in test [3], the percent of DCLK1 that co-pelleted with microtubules amounted to 98.9%.

Regarding “sfGFP-DCLK1-ΔC (mouse, aa 1-648), co-expressed with lambda phosphatase, hyperphosphorylated by 30 min with 2 mM ATP (domain or fragment)”, in test [6], the microtubule-bound fluorescence intensity at 5 nM was 988 and the microtubule-bound fluorescence intensity at 20 nM worked out at 1580. Moreover, the microtubule-bound fluorescence intensity at 10 nM in test [1] was found to be 1580. In addition, the percent of DCLK1 that co-pelleted with microtubules in test [2] is 6.9%.

For the substance “sfGFP-DCLK1-ΔC (mouse, aa 1-648), co-expressed with lambda phosphatase, not incubated with ATP (domain or fragment)”, the percent of DCLK1 that co-pelleted with microtubules in test [3] worked out at 96.3%. The substance also came in with a microtubule-bound fluorescence intensity at 10 nM in test [4] of 12100. In test [5], the microtubule-bound fluorescence intensity at 5 nM turned out to be 12900 and the microtubule-bound fluorescence intensity at 20 nM came out at 23600.

“sfGFP-DCLK1-ΔC (mouse, aa 1-648), treated with lambda phosphatase after purification (domain or fragment)”: in test [5], the microtubule-bound fluorescence intensity at 3 nM came out at 12000 and the microtubule-bound fluorescence intensity at 25 nM was 21200.

On to “sfGFP-DCLK1-ΔC DC1-4A (S77, S83, S96, T143 to alanine), co-expressed with lambda phosphatase, incubated with ATP (domain or fragment)”, for which, in test [6], the microtubule-bound fluorescence intensity at 5 nM amounted to 4040 and the microtubule-bound fluorescence intensity at 20 nM turned out to be 12600.

In test [5], “sfGFP-DCLK1-ΔC DC1-4A (S77, S83, S96, T143 to alanine), co-expressed with lambda phosphatase, not incubated with ATP (domain or fragment)” displayed a microtubule-bound fluorescence intensity at 5 nM of 12200 and a microtubule-bound fluorescence intensity at 20 nM of 22300.

In test [6], “sfGFP-DCLK1-ΔC DC2-4A (T189, S193, T218, S228 to alanine), co-expressed with lambda phosphatase, incubated with ATP (domain or fragment)” had a microtubule-bound fluorescence intensity at 5 nM of 2480 and a microtubule-bound fluorescence intensity at 20 nM of 3500.

In test [5], “sfGFP-DCLK1-ΔC DC2-4A (T189, S193, T218, S228 to alanine), co-expressed with lambda phosphatase, not incubated with ATP (domain or fragment)” returned a microtubule-bound fluorescence intensity at 5 nM of 8550 and a microtubule-bound fluorescence intensity at 20 nM of 19900.
